Assay results: US20240270804

Target: T1, myc- and green-fluorescent protein (GFP) tagged mAKAP 1694-1833 (UniProt Q9WVC7)
T1 sequence: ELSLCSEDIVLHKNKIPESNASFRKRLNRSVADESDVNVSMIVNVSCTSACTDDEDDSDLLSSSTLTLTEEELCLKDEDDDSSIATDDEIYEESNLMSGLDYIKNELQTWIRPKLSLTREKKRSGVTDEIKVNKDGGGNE

In the case of “endogenous CaMKII (Ca2+/calmodulin-dependent protein kinase II) of neonatal rat ventricular myocytes”, the “HDAC4 phosphorylation (basal and Angiotensin II-induced) in neonatal myocytes” value is reported as “both basal and Angiotensin II-induced HDAC4 phosphorylation in neonatal myocytes is inhibited by mAKAP 1694-1833 expression”.
